The values below come from publication PMC11871226 (Nature Communications, 2025).

This experiment deals with Purified human ACSS2 (bacterially expressed) (human, UniProt Q9NR19 1-701). In words: pull-down.
Chain of Purified human ACSS2 (bacterially expressed) (Q9NR19 whole entry): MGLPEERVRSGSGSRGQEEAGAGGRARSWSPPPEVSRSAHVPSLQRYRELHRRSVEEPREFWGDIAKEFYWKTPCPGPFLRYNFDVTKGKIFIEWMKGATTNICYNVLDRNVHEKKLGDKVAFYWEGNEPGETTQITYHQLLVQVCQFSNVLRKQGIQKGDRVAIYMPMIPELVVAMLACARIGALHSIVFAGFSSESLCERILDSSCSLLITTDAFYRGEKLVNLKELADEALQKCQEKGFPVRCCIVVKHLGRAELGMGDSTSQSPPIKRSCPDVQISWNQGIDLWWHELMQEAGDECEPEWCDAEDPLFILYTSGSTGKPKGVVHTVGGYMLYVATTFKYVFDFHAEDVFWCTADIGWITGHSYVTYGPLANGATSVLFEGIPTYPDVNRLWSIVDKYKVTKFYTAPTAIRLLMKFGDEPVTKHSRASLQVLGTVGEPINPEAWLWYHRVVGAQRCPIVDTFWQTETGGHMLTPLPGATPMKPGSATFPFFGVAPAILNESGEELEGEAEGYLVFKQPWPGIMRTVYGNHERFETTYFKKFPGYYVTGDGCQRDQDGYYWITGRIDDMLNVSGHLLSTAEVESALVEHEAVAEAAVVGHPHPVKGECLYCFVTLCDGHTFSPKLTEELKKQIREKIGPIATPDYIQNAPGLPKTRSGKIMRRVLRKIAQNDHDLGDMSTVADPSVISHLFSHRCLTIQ

B1: Purified human PAICS (bacterially expressed) (natural protein, UniProt P22234 1-425, looked up)
chain: MATAEVLNIGKKLYEGKTKEVYELLDSPGKVLLQSKDQITAGNAARKNHLEGKAAISNKITSCIFQLLQEAGIKTAFTRKCGETAFIAPQCEMIPIEWVCRRIATGSFLKRNPGVKEGYKFYPPKVELFFKDDANNDPQWSEEQLIAAKFCFAGLLIGQTEVDIMSHATQAIFEILEKSWLPQNCTLVDMKIEFGVDVTTKEIVLADVIDNDSWRLWPSGDRSQQKDKQSYRDLKEVTPEGLQMVKKNFEWVAERVELLLKSESQCRVVVLMGSTSDLGHCEKIKKACGNFGIPCELRVTSAHKGPDETLRIKAEYEGDGIPTVFVAVAGRSNGLGPVMSGNTAYPVISCPPLTPDWGVQDVWSSLRLPSGLGCSTVLSPEGSAQFAAQIFGLSNHLVWSKLRASILNTWISLKQADKKIRECNL
With B1, the binding result was “binds”.
